The target of experiment [1] is recombinant human CLASP2 C-terminal fragment (CLASP2-1213-1515) (human). In words: SEC + other: density gradient centrifugation.
For experiment [2], the target named is T1, CLASP2 (endogenous, HeLa cell extracts) (human (endogenous in HeLa)), O75122.
T1 chain: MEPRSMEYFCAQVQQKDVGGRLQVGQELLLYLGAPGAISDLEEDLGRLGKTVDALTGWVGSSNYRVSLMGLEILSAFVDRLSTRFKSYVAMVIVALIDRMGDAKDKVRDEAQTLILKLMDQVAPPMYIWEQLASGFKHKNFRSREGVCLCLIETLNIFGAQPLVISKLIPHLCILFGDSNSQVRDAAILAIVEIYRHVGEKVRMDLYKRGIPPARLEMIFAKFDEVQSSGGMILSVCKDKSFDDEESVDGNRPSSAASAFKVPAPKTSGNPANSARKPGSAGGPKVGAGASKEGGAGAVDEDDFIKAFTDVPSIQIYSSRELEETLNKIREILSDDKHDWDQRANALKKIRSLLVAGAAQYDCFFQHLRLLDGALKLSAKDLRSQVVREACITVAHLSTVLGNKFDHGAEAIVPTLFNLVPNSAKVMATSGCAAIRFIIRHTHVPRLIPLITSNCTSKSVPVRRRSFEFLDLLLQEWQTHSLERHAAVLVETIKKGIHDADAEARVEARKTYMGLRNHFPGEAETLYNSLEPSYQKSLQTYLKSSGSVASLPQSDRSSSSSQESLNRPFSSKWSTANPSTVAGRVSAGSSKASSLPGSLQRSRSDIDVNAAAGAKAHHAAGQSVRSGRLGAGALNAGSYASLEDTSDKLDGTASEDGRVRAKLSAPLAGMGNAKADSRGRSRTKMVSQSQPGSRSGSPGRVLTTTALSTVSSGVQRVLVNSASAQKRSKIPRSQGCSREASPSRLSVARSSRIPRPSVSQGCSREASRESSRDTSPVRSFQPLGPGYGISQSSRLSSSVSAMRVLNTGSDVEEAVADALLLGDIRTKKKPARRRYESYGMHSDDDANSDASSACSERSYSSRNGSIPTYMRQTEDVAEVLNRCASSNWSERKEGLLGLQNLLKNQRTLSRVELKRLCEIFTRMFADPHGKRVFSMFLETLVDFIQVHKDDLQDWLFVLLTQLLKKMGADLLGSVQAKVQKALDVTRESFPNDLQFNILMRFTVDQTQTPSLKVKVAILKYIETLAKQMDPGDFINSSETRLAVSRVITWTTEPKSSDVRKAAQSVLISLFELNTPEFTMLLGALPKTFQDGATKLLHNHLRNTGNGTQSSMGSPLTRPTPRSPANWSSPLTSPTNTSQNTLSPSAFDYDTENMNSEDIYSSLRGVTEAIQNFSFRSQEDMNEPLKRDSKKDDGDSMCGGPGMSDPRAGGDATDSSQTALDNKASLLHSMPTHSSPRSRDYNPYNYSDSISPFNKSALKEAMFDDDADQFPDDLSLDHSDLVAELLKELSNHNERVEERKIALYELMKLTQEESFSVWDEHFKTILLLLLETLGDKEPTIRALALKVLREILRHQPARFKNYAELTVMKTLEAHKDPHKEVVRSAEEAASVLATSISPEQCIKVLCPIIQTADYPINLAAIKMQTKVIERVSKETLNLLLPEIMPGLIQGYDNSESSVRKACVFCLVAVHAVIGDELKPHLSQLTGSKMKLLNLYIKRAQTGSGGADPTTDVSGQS
In words: SEC + other: density gradient centrifugation. The settings on record: remark: other sources report otherwise.

From publication doi:10.1101/634907 come the findings set out here.

The term stoichiometry N denotes the number of molecules, sites or subunits per partner or assembly. As to “recombinant human CLASP2 C-terminal fragment (CLASP2-1213-1515) (domain or fragment)”, the stoichiometry N in experiment [1] stood at 2.

B1: CLASP2 (endogenous, HeLa cell extracts), O75122-3 1-1515 (natural protein)
chain: T1 chain
Regarding B1, the stoichiometry N in experiment [2] worked out at 2.
